Where a chain is given by its changes, count along the chain named. One block for each binder: values may come before it.
Tests used:
[1] = molecular target: KRAS G12V 7-16 epitope peptide … presented by HLA-A*11:01 (human); assay: cell-based or functional assay
[2] = molecular target: T1, KRAS G12V peptide on HLA-A*11:01 (human); assay: IFN-gamma ELISA; TCR-T cells with T2KO-A1101 cells loaded with 1e-5 to 1e-11 M peptide, E:T 1:1, 20 h; Figure 6C; full-length, on cells
T1 peptide: VVVGAVGVGK

[3] = molecular target: T1, KRAS G12V peptide on HLA-A*11:01; assay: NFAT-GFP reporter in Jurkat (endogenous TCR knocked out); T2 cells loaded with 1e-5 to 1e-9 M target antigen peptide; full-length, on cells
[4] = molecular target: T2, KRAS G12V 7-16, P2I peptide on HLA-A*11:01 (human); assay: cytokine release
T2 peptide: VIVGAVGVGK

[5] = molecular target: T3, KRAS G12V 7-16, P8I peptide on HLA-A*11:01 (human); assay: cytokine release
T3 peptide: VVVGAVGIGK

[6] = molecular target: T4, KRAS G12V 7-16, P7A peptide on HLA-A*11:01 (human); assay: cytokine release
T4 peptide: VVVGAVAVGK

[7] = molecular target: T5, KRAS G12V 7-16, P5S peptide on HLA-A*11:01 (human); assay: cytokine release
T5 peptide: VVVGSVGVGK

[8] = molecular target: T6, KRAS G12V 7-16, P7Q peptide on HLA-A*11:01 (human); assay: cytokine release
T6 peptide: VVVGAVQVGK

[9] = molecular target: T7, KRAS G12V 7-16, P1T peptide on HLA-A*11:01 (human); assay: cytokine release
T7 peptide: TVVGAVGVGK

[10] = molecular target: T8, KRAS G12V 7-16, P3G peptide on HLA-A*11:01 (human); assay: cytokine release
T8 peptide: VVGGAVGVGK

[11] = molecular target: T9, KRAS G12V 7-16, P3A peptide on HLA-A*11:01 (human); assay: cytokine release
T9 peptide: VVAGAVGVGK

[12] = molecular target: T10, KRAS G12V 7-16, P6I peptide on HLA-A*11:01 (human); assay: cytokine release
T10 peptide: VVVGAIGVGK

[13] = molecular target: T11, KRAS G12V 7-16, P8C peptide on HLA-A*11:01 (human); assay: cytokine release
T11 peptide: VVVGAVGCGK

[14] = molecular target: T12, KRAS G12V 7-16, P6L peptide on HLA-A*11:01 (human); assay: cytokine release
T12 peptide: VVVGALGVGK

[15] = molecular target: T13, KRAS G12V 7-16, P5C peptide on HLA-A*11:01 (human); assay: cytokine release
T13 peptide: VVVGCVGVGK

[16] = molecular target: T14, KRAS G12V 7-16, P3I peptide on HLA-A*11:01 (human); assay: cytokine release
T14 peptide: VVIGAVGVGK

[17] = molecular target: T15, KRAS G12V 7-16, P8T peptide on HLA-A*11:01 (human); assay: cytokine release
T15 peptide: VVVGAVGTGK

[18] = molecular target: T1, KRAS G12V peptide on HLA-A*11:01; assay: luciferase killing assay; TCR-T cells with T2KO-A1101 cells loaded with 1e-5 to 1e-11 M peptide, E:T 9:1, 20 h; Figure 5C; full-length, on cells
[19] = molecular target: KRAS G12D 7-16 epitope peptide … presented by HLA-A*11:01 (human); assay: cell-based or functional assay
[20] = molecular target: T16, KRAS G12D peptide on HLA-A*11:01 (human); assay: IFN-gamma ELISA; TCR-T cells with T2KO-A1101 cells loaded with 1e-5 to 1e-11 M peptide, E:T 1:1, 20 h; Figure 6D; full-length, on cells
T16 peptide: VVVGADGVGK

[21] = molecular target: T16, KRAS G12D peptide on HLA-A*11:01; assay: NFAT-GFP reporter in Jurkat (endogenous TCR knocked out); T2 cells loaded with 1e-5 to 1e-9 M target antigen peptide; full-length, on cells
[22] = molecular target: T17, KRAS G12V 7-16, P5P peptide on HLA-A*11:01 (human); assay: cytokine release
T17 peptide: VVVGPVGVGK

[23] = molecular target: T18, KRAS G12V 7-16, P9N peptide on HLA-A*11:01 (human); assay: cytokine release
T18 peptide: VVVGAVGVNK

[24] = molecular target: T19, KRAS G12V 7-16, P3Q peptide on HLA-A*11:01 (human); assay: cytokine release
T19 peptide: VVQGAVGVGK

[25] = molecular target: T20, KRAS G12V 7-16, P8F peptide on HLA-A*11:01 (human); assay: cytokine release
T20 peptide: VVVGAVGFGK

[26] = molecular target: T21, KRAS G12V 7-16, P9D peptide on HLA-A*11:01 (human); assay: cytokine release
T21 peptide: VVVGAVGVDK

[27] = molecular target: T22, KRAS G12V 7-16, P5V peptide on HLA-A*11:01 (human); assay: cytokine release
T22 peptide: VVVGVVGVGK

[28] = molecular target: T23, KRAS G12V 7-16, P1A peptide on HLA-A*11:01 (human); assay: cytokine release
T23 peptide: AVVGAVGVGK

[29] = molecular target: T24, KRAS G12V 7-16, P9A peptide on HLA-A*11:01 (human); assay: cytokine release
T24 peptide: VVVGAVGVAK

[30] = molecular target: T25, KRAS G12V 7-16, P9S peptide on HLA-A*11:01 (human); assay: cytokine release
T25 peptide: VVVGAVGVSK

[31] = molecular target: T26, KRAS G12V 7-16, P9Q peptide on HLA-A*11:01 (human); assay: cytokine release
T26 peptide: VVVGAVGVQK

[32] = molecular target: T27, KRAS G12V 7-16, P8L peptide on HLA-A*11:01 (human); assay: cytokine release
T27 peptide: VVVGAVGLGK

[33] = molecular target: T28, KRAS G12V 7-16, P3C peptide on HLA-A*11:01 (human); assay: cytokine release
T28 peptide: VVCGAVGVGK

[34] = molecular target: T29, KRAS G12V 7-16, P3S peptide on HLA-A*11:01 (human); assay: cytokine release
T29 peptide: VVSGAVGVGK

[35] = molecular target: T30, KRAS G12V 7-16, P5T peptide on HLA-A*11:01 (human); assay: cytokine release
T30 peptide: VVVGTVGVGK

[36] = molecular target: T31, KRAS G12V 7-16, P8G peptide on HLA-A*11:01 (human); assay: cytokine release
T31 peptide: VVVGAVGGGK

[37] = molecular target: T32, KRAS G12V 7-16, P3E peptide on HLA-A*11:01 (human); assay: cytokine release
T32 peptide: VVEGAVGVGK

[38] = molecular target: T33, KRAS G12V 7-16, P3M peptide on HLA-A*11:01 (human); assay: cytokine release
T33 peptide: VVMGAVGVGK

- EC50 of IFN-γ secretion with peptide-loaded T2KO-A1101 cells (ELISA, E:T 1:1, 20 hours) [1]: 22 nM
- EC50 of NFAT-GFP reporter activation, TCR in Jurkat-NFAT cells with peptide-loaded T2 cells [1]: 28.9 nM
- EC50 of peptide [2]: 22 nM
- EC50 of peptide [3]: 28.9 nM
- binding result [4]: recognises
- binding result [5]: recognises
- binding result [6]: recognises
- binding result [7]: recognises
- binding result [8]: recognises
- binding result [9]: recognises
- binding result [10]: recognises
- binding result [11]: recognises
- binding result [12]: recognises
- binding result [13]: recognises
- binding result [14]: recognises
- binding result [15]: recognises
- binding result [16]: recognises
- binding result [17]: recognises
B1: KVA11-N04 (TCR, V domains shown)
Valpha: GESVGLHLPTLGVQEGDNSIINCAYSNSASDYFIWYKQESGKGPQFIIDIRSNMDKRQGQRVTVLLNKTVKHLSLQIAATQPGDSAVYFCAENSDGTSYGKLTFGQGTILTVHP
Vbeta: EAGVAQSPRYKIIEKRQSVAFWCNPISGHATLYWYQQILGQGPKLLIQFQNNGVVDDSQLPKDRFSAERLKGVDSTLKIQPAKLEDSAVYLCASSLVGSPDYEQYFGPGTRLTVT
- EC50 of killing of peptide-loaded T2KO-A1101 cells (luciferase, E:T 9:1, 20 hours) [1]: 0.973 nM
- EC50 of peptide [18]: 0.973 nM

- EC50 of IFN-γ secretion with peptide-loaded T2KO-A1101 cells (ELISA, E:T 1:1, 20 hours) [19]: 49.6 nM
- EC50 of NFAT-GFP reporter activation, TCR in Jurkat-NFAT cells with peptide-loaded T2 cells [19]: 76.5 nM
- EC50 of peptide [20]: 49.6 nM
- EC50 of peptide [21]: 76.5 nM
B2: KDA11-N01 (TCR, V domains shown)
Valpha: QKEVEQNSGPLSVPEGAIASLNCTYSDRGSQSFFWYRQYSGKSPELIMSIYSNGDKEDGRFTAQLNKASQYVSLLIRDSQPSDSATYLCAVNLGAAGNKLTFGGGTRVLVKP
Vbeta: B1 Vbeta with L96F, V97S, G98D, P100Y, D101N, Y102S, E103P, Q104L, Y105H, P108N

- binding result [22]: recognises
- binding result [23]: recognises
- binding result [4]: recognises
- binding result [24]: recognises
- binding result [25]: recognises
- binding result [5]: recognises
- binding result [26]: recognises
- binding result [7]: recognises
- binding result [27]: recognises
- binding result [28]: recognises
- binding result [29]: recognises
- binding result [30]: recognises
- binding result [10]: recognises
- binding result [11]: recognises
- binding result [12]: recognises
- binding result [31]: recognises
- binding result [32]: recognises
- binding result [33]: recognises
- binding result [34]: recognises
- binding result [35]: recognises
- binding result [36]: recognises
- binding result [37]: recognises
- binding result [15]: recognises
- binding result [16]: recognises
- binding result [38]: recognises
B3: KVA11-N02 (TCR, V domains shown)
Valpha: AQSVAQPEDQVNVAEGNPLTVKCTYSVSGNPYLFWYVQYPNRGLQFLLKYITGDNLVKGSYGFEAEFNKSQTSFHLKKPSALVSDSALYFCAVRDIEGAGNNRKLIWGLGTSLAVNP
Vbeta: DAGVIQSPRHEVTEMGQEVTLRCKPISGHNSLFWYRQTMMRGLELLIYFNNNVPIDDSGMPEDRFSAKMPNASFSTLKIQPSEPRDSAVYFCASSEGFYTEAFFGQGTRLTVV
